{"source": "paper PMC8449060", "about": "“A fully reversible 25-hydroxy steroid kinase involved in oxygen-independent cholesterol side-chain oxidation” (The Journal of Biological Chemistry, 2021)", "test_in_all_cases": "purified protein", "key": {"[1]": {"system": "Nc1ncnc2c1ncn2[C@@H]1O[C@H](COP(=O)(O)OP(=O)(O)O)[C@@H](O)[C@H]1O", "settings": "reverse direction, 1 mM 25-phospho-CDO, 10 mM MgCl2, 9% (w/v) HPCD, 50 mM Tris/HCl pH 7.8, 30 °C"}, "[2]": {"system": "C[C@H](CCCC(C)(C)O)[C@H]1CC[C@H]2[C@@H]3CCC4=CC(=O)C=C[C@]4(C)[C@H]3CC[C@]12C", "settings": "forward direction, 5 mM ATP, 10 mM MgCl2, 9% (w/v) HPCD, 50 mM Tris/HCl pH 7.8, 30 °C"}, "[3]": {"system": "Nc1ncnc2c1ncn2[C@@H]1O[C@H](COP(=O)(O)OP(=O)(O)OP(=O)(O)O)[C@@H](O)[C@H]1O", "settings": "forward direction, 1 mM 25-OH-CDO, 10 mM MgCl2, 9% (w/v) HPCD, 50 mM Tris/HCl pH 7.8, 30 °C"}, "[4]": {"system": "C[C@H](CCCC(C)(C)OP(=O)(O)O)[C@H]1CC[C@H]2[C@@H]3CCC4=CC(=O)C=C[C@]4(C)[C@H]3CC[C@]12C", "settings": "reverse direction, 5 mM ADP, 10 mM MgCl2, 9% (w/v) HPCD, 50 mM Tris/HCl pH 7.8, 30 °C, apparent, tested only up to 4 mM, no saturation"}}}
{"substance": "25-HSK (25-hydroxy-steroid kinase) (Sterolibacterium denitrificans)", "values": [{"measurement": "Km", "setting": "[1]", "value": "35 ± 3", "unit": "µM"}, {"measurement": "Km", "setting": "[2]", "value": "300 ± 10", "unit": "µM"}, {"measurement": "Km", "setting": "[3]", "value": "800 ± 50", "unit": "µM"}, {"measurement": "Km", "setting": "[4]", "value": "8000 ± 700", "unit": "µM"}]}
